In the nanobody polyreactivity screen of Harvey et al. (2022):

Assay: yeast display, Sf9 membrane polyspecificity reagent, FACS + sequencing; frameworks hold sequencing errors
Procedure, shortened: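 Using colony PCR, genes from sorted yeast display clones were amplified, then sequenced on MiSeq at 2 × 250 and filtered by CDR length. The clones had been stained with 10% biotinylated, detergent-solubilized Sf9 membrane reagent for 1 hour at 4 °C and sorted by FACS into low and high (top ~1%) gates on anti-HA and streptavidin fluorescence. Polyreactivity labels come from the gate of origin.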

| Sequence | polyreactivity (PSR sort gate) |
| --- | --- |
| QVQLVESGGGLVQAGGSLRLSCAASGSTFSRYAMGWYRQAPGKEREFVAAISRRAGGTYYADSVKGRFTISRDNAKNTVYLQMNSVKPEDTAVYYCAKVLPRDYIGRATYDYWGQGTQVTVSS | high polyreactivity |
| QVQLVESGGGLVQAGGSLRLSCAASGNIFFTNAMGWYRQAPGKDRELVATISFRGTSTYYADSVKGRFTISRDNAKNTVYLQMNSLKPEDTAVYYCTARYSVFHRARVNLLGWGLYYWGQGTQVTVSS | low polyreactivity |
| QVQLVESGGGLVQAGGSLRLSCAASGRIIRYYAMGWYRPAPGKERELVAGITTGGGSTYYADSVKGRFTISRDNAKNTVYLQMNSLKPEDTAVYYCAARYYTTYYWGQGTQVTVSS | high polyreactivity |
| QVQLVESGGGLVQAGGSLRLSCAASGRIFSTYVMGWYRQAPGKERELVAAIRNNGGSTYYADSVKGRFTISRDNAKNTVYLQMNSLKPEDTAVYFCAKKSFFTGRWWYDYWGQGTQVTVSS | high polyreactivity |
| QVQLVESGGGLVQAGGSLRLSCAASGRTFPGYAMGWYRQAPGKERELVAAISSSGGSTYYADSVKGRFTISRDNAKNTVYLQMNSLKPEDTAVYYCNAAYRGRLYSWRYGYDYWGQGTQVTVSS | high polyreactivity |
| QVQLVESGGGLVQAGGSLRLSCAASGRTFARYAMGWYRQAPGKERELVAAITRRGGSTYYADSVKGRFTISRDNAQNTVYLQMNSLKPEDTAVYYCAVPWYTRESGAYDYWGQGTQVTVSS | high polyreactivity |
| QVQHVESGGGLVQAGGSLRLSCAASGRIFGPYAMGWYRQAPGKEREFVAVITYSSGSTYYADSVKWRFTISRDNAKNTVYLQMNSLKPEDTAVYYCAARLIRSYYYGRYDYWGQGTQVTVSS | high polyreactivity |
| PVQLVESGGGLVQAGGSLRLSCAASGFIFSWYAMGWYRPAPGKDRELVAAISRSGGSTYADSVKGRFTIARDNAKNTVYLQMNSLKPEDTAVYYCAAGSYWSYWDSRYDYWGQGTQVTVSS | low polyreactivity |
| QVQLVESGGGLVQAGGSLRLICAASGRTYRLYAMGWYRQAPGKERELVAAISYSDGRTYYADSVKGRFTISRDNAKNTVYLQMNSLKPEDTALYYCAAETLYVSPYFYVVQYDYWGQGTQVTVSS | high polyreactivity |
| QVQLVESGGGLVQAGGSLRLSCADSGITFVTYAMGWYRQAPGKERELVAAISRSGGRTYYADYVKGRFTISRENAKNTVYLQMNSLKPEDTAVYYCAAERKNKYDYWVQGTQVTVSS | high polyreactivity |
| QVQLVESGGGLVQAGGSLRLSCAASGRTFFYYAMGWYRQAPGKERELFATITKRGGSTYYADSVKGRFTISRDNAKNTVYLQMNSLKPEDTAVYYCAATYYRQGRRYLGYDYWGQGTQVTVSS | high polyreactivity |
| QVQLVESGGGLVQAGGSHRLSSAASGSILADNAMGWYRQAPGKERELVAAISLRGGRTYYADSVKGGFTISRDNAKNTVYLQMNSLKPEDTAVYYCAAVGSFHIVDYWGEGTQVTVSS | high polyreactivity |
| QVQLVESGGGLFQAGGSLRLSCAASGFTFDYYAMGWYRPAPGKERELVAAISRAGSTNYADSVKGRFTISRDNAKNTVYLQMNSLKPEDTAVYYCNKGYHSWSRLSQFGWSYDYWGQGTQVTVSS | high polyreactivity |
| QVQLVESGGGLVQAGGSLRLSCAASGFIFLENDMGCYRQAPGKERELVASINSGSDTNYADSVKGRFTISRDNAKNTVYLQMNSLKPEDTAVYYCNASYNGVPARYDYWGQGTQVTVSS | low polyreactivity |
| QVQLVESGAALVQAGGSLRLSCAASGFIIYDYMGWYRQAPGKERELVAVISYSGSSTYYADSVKGRFTISRDNAKNTDYLQMNSLKPEDTAVYYCAARNVNGWDYDYWGLGTQVTVSS | low polyreactivity |
| QVQLVESGGGLVQAGGSLRLSCAASGRTISHNVMGWYIKAPGKERELVAAISRNGGRTYYADSVKGRFTISRDNAKNTVYLQMNSLKPEDTAVYYCAKRRSYFLHSYYSYGYWGQGTQVTVSS | high polyreactivity |
| QVQLVESGGGLVQAGGSLRLSCAASGRTFLIYAMGWYRQAPGKERELVAGITRGSTTYADSVKGRFTISRDNAKNTVYLQMNSLKPEDTEVYYCAARNYSVATYGEYDYWGQGTQVTVSS | high polyreactivity |
| QVQLVESGGGLVQAGGSLRLSCAASGSTFSANAMGWYRQAPGKERELVAAITYRGGNTYYADSVKGRFTISRDNAKNTVYLQLNSLKPEDTAVYYCNRDLRVRYRRLKYGYWGQGTQVTVSS | low polyreactivity |
| QVQLVESGGGLVQAGGSLRLSCAASGRTFYYNGMGWYRQAPGKERELVATITNGGSTNYADSVKGRFTISRDNAKNTVYLQMNSLKPEDTAVYYCAKTLASDCYDYWGQGTQVTVSS | low polyreactivity |
| QVQLVESGGGVVQAGGSLRLSCAASGRTYGYNAMGWYRPAPGTERELVAAITKSGVSTYYADSVKGRFTISRDNAKNTVYLQMNSLKPEDTAVYYCAVDSYYYSMDYWGQGTQVTVSS | high polyreactivity |
| QVQLVESGGGLVQAGGSLRLSCAASGSTFAYYVMGWYRQAPGKERELVAAITSSGGRTYYADSVKGRFTISRDNAKNTVYLQMNSLKPEDTAVYYCAKVSQRRVDNSDYDYWGQGTQVTVSS | high polyreactivity |
| QVQLVESGGGLVQAGGSLRLSCAASGSTLFNYDMGWYRQAPGKERELVAAFDWGDGTTYYADSVKGRFTISRDNAKNTVYLQMNSLKPEDTAVYYCAAEEFYSPYDYWGQGTQVTVSS | high polyreactivity |

| Sequence | polyreactivity (PSR sort gate) |
| --- | --- |
| QVQLVESGGGLVQAGGSLRLSCAASGRIFYVYTMGWYRQARGKERELVAAISWSGGSTHYADSVKGRFTISRDNAKNTVYLQMNSLKPEDTAVYYCNKGVLSRVAFEYWGQGTQVTVSS | low polyreactivity |
| QVQLEDSGGGLVQAGGSLRLSCAASGLTFYGYTMGWYRQAPGKERELVAAISWSGGNTYYADSVKGRFTISRDNAKNTVYLQMNSLKPEDTAVYYCAAEHWTYDWVDYWGQGTQVTVSS | low polyreactivity |
| QVQLVESGGGLVQAGGSLRLSCAASGSIFRYYAMGWYRQAPWKERELVADISSGGSTYYADSVKGRFTISRDNAKNTVNLQMISQKPEDTAVYYCNDDYYAYPWTNDYWGQGTQVTVTS | high polyreactivity |
| QVQLVESAGGLVQEGGSLRLSCAASGRIFARYAMGWSRQAPGKERELVAAITDSGDNTYYADSVKGRFTISRDNAKNTVYLQMNSLKPEDTAVYYCKAYFLVHYRRLRPYDYWGHGTQVTVSS | low polyreactivity |
| QVQLVESGGGLVQAGGSLRLSCGASGSTFRLYALGWYRQAPGNEWAFVAAISFRGGSTYYADSVKGRFTISRDNAQNTVYLQMNSLKPEDTAVYYCAAEVGTGGVRTPRYEYWGQGTQVTVSS | high polyreactivity |
| QVQLVESGGGLVQAGGSLRLSCAASGRIFYQNTMGWYRQAPGKEREFVARINWSGGSTYYADSVKGRFTISRDNAKITVYLQMNSLKPEDTAVYYWAKASQSWGRDDYYYWGQGTQVTVSS | low polyreactivity |
| QVQLVESGGGLVQAGGSLRLSCAASGSIFGYYAMGWYRQAPGKERELVASISWSGTSTYYADSVKGRFTISRDNAKNTVYLQMNSLKPEDTAVYYCATKGLFTNSPLYVSAYDYWGQGTQVTVSS | low polyreactivity |
| QVQLVESGGGLVQAGGSLRLSCAASGSTFAIYAMGWYRQAPGKERELVASISGGSTNYADSVKGRFTISRDNAKNTVYLQMNSLKPEDTAVYYCAARGALHHWYRYDYWGQVTQVTVSS | low polyreactivity |
| QDQLVESGRGLVQAGGSLRLSCAASGSTFSYYAIGWYRQAPGKERELVAAISRRGGSTYYADSVKGRFTISRDNAKNSVYLQMNSLKPEDTAVYYCNRVTYTGYDSWGQGTQVTVSS | high polyreactivity |
| QVQLVESGGGLVQAGGSLRLSCAASGSTFDGNAKGWYRQAPGKERELVATINSGSSTNYADSVKGRFTISRDNAKNTVYLQMISLKPEDTAVFYCNVDSGSDSLVYSVRYNYWGQGTQVTVSS | low polyreactivity |
| QVQLVESGGGLVQAGGSLRLSCAASGFTFDDNAMGWYRQAPGKERELVAVITKSGGRTYYADSVKGRFTLSRDNAKNTVYLQMNSLKPEDTAVYYCNADGRNWYYKWYDYWGQGTQVTVSS | low polyreactivity |
| QVQLVESVGGLVQAGVSLRLSSPATGSTIYFYAMGWYRQEPGKERELVAAISGSGGRKYYADSVKGRFTISRDNAKNTVYLQMNSLKPEDTAVYYCAAEWFPYSEREFLYYYWGQGTQVTVSS | high polyreactivity |
| QVQLVESGGGLVQAGGSLRLSCAASGSTFYRYAMGWYRQAPGKERELVARITWSAGRTYYADSVKGRFTISRDTAKNTVYLQMNSLKPEDTAVYYCAADSGGFASNKRMDYWGQGTQVTVSS | high polyreactivity |
| QVQLVESGGGLVQAGGSLRLSCAASGIMFSSYAMLWYRQAPGKERELFAAISWSGGSTYYADSVKLRFTISRDNAKNTVYLQMNSLKPEDTAVYYCAAKSHWYKRGYWGQGTQVTVSS | low polyreactivity |
| QVQLVEAGGGLVQAGGSLRLSCAASGNIFLYYAMGWYRQAPGKEREFVADIDSSGASTYYADSVKGRFTISRDNAKNTVYLQMNSLKPEDTAVYYCAAEFHWWYAGYDYGYWGQGTQVTVSS | low polyreactivity |
| QVQLVESGGGLVQAGGSLRLSCAASGSTFRVNAMGWYRQAHGKEREFVAGISFGGGSTYYADSVKGRFTISRDNAKNTVYFQMNSLKPEDTADYYCNARGKGSGAVRYNYWGQGTLVTVSS | high polyreactivity |
| QVQLVESGGGLVQAGGRLRLSCAASGFIFAYYAMGWYRQAPGKERELVAAITIDGSTNYADSVKGRFTISRDNAKNTVYLQMNSLKPEDTAVYYCAAADHPPVCYGYWGQGTQVTVSS | low polyreactivity |
| QVQLVESGGGLVQAGGSLRLSCAASGFTCVPYAMGWYSQAPGKARELVAAITGGGSTYYADSVKGRFTISRDNAKNTVYFQMHSLKPEDTAVYYCAAREARSHRYSNRVYYWGQGTQVTVSS | high polyreactivity |
| QVQLVESGGGLVQAGGSLRLSCAASGNTFVSNAMGWYRQAPGKERELVAAIDSGGSTNYADSVKGRFTISRDNAKNTVYLQMNRLKPEDTAVYYCNRTSVYYYYWGQGTQVTVSS | low polyreactivity |
| QVQLVESGGGLVQAGGSLRLSCAASGFIFSNYAMGWYRQAPGKERELVAAISWSGGNTYYADSVKGRFTISRDNAKNTVYLQMNSLKPEDTAVYYCTRVKAYYRWFLPRYQYNYWGQGTQVTVSS | high polyreactivity |
| QVQLVESGGGLVQAGGSLRLSCAASGFTFPGYAMGWYRQAPGKERELVAAISYSSGSTYYADSVKGRFTISRDNAKNTVYLQMNSLKPEDTAVYYCNRVYRFRGITELDYWGQGTQVTVSS | high polyreactivity |
